From US20140087995A1 (published 2014) come the findings set out here.

Numbered stars: 1 amine (or outer) side, 2 acyl side, 3 side chain; on linkers, the order of the positions; unused ones are H or OH. Bridge positions count the residues as written; N and C are the ends. Side chains are listed from the residue outwards. Ends that are not written are not given here. * marks the point of attachment. C20 diacid = O=C(O)CCCCCCCCCCCCCCCCCCC(=O)*; C18 diacid = O=C(O)CCCCCCCCCCCCCCCCC(=O)*; C16 diacid = O=C(O)CCCCCCCCCCCCCCC(=O)*; γGlu = O=C(O)[C@H](CCC(=O)[*:2])N[*:1]

B1: N^ε1-[(4S)-4-carboxy-4-(15-carboxypentadecanoylamino)butanoyl]-[Arg17,Pro21,Pro27,His34]-h-amylin (peptide)
peptide: K([γGlu-C16 diacid])CNTATCATQRLANFLRHSSPNFGAIPSSTNVGHNTY-NH2
modifications: disulfide 2-7; N-terminus assumed
SMILES: CC[C@H](C)[C@H](NC(=O)[C@H](C)NC(=O)CNC(=O)[C@H](Cc1ccccc1)NC(=O)[C@H](CC(N)=O)NC(=O)[C@@H]1CCCN1C(=O)[C@H](CO)NC(=O)[C@H](CO)NC(=O)[C@H](Cc1c[nH]cn1)NC(=O)[C@H](CCCNC(=N)N)NC(=O)[C@H](CC(C)C)NC(=O)[C@H](Cc1ccccc1)NC(=O)[C@H](CC(N)=O)NC(=O)[C@H](C)NC(=O)[C@H](CC(C)C)NC(=O)[C@H](CCCNC(=N)N)NC(=O)[C@H](CCC(N)=O)NC(=O)[C@@H](NC(=O)[C@H](C)NC(=O)[C@@H]1CSSC[C@H](NC(=O)[C@@H](N)CCCCNC(=O)CC[C@H](NC(=O)CCCCCCCCCCCCCCC(=O)O)C(=O)O)C(=O)N[C@@H](CC(N)=O)C(=O)N[C@@H]([C@@H](C)O)C(=O)N[C@@H](C)C(=O)N[C@@H]([C@@H](C)O)C(=O)N1)[C@@H](C)O)C(=O)N1CCC[C@H]1C(=O)N[C@@H](CO)C(=O)N[C@@H](CO)C(=O)N[C@H](C(=O)N[C@@H](CC(N)=O)C(=O)N[C@H](C(=O)NCC(=O)N[C@@H](Cc1c[nH]cn1)C(=O)N[C@@H](CC(N)=O)C(=O)N[C@H](C(=O)N[C@@H](Cc1ccc(O)cc1)C(N)=O)[C@@H](C)O)C(C)C)[C@@H](C)O
B2: N^ε1-[(4S)-4-carboxy-4-(17-carboxyheptadecanoylamino)butanoyl]-[Arg17,Pro21,Pro27,His34]-h-amylin (peptide)
peptide: K([γGlu-C18 diacid])CNTATCATQRLANFLRHSSPNFGAIPSSTNVGHNTY-NH2
modifications: disulfide 2-7; N-terminus assumed
SMILES: CC[C@H](C)[C@H](NC(=O)[C@H](C)NC(=O)CNC(=O)[C@H](Cc1ccccc1)NC(=O)[C@H](CC(N)=O)NC(=O)[C@@H]1CCCN1C(=O)[C@H](CO)NC(=O)[C@H](CO)NC(=O)[C@H](Cc1c[nH]cn1)NC(=O)[C@H](CCCNC(=N)N)NC(=O)[C@H](CC(C)C)NC(=O)[C@H](Cc1ccccc1)NC(=O)[C@H](CC(N)=O)NC(=O)[C@H](C)NC(=O)[C@H](CC(C)C)NC(=O)[C@H](CCCNC(=N)N)NC(=O)[C@H](CCC(N)=O)NC(=O)[C@@H](NC(=O)[C@H](C)NC(=O)[C@@H]1CSSC[C@H](NC(=O)[C@@H](N)CCCCNC(=O)CC[C@H](NC(=O)CCCCCCCCCCCCCCCCC(=O)O)C(=O)O)C(=O)N[C@@H](CC(N)=O)C(=O)N[C@@H]([C@@H](C)O)C(=O)N[C@@H](C)C(=O)N[C@@H]([C@@H](C)O)C(=O)N1)[C@@H](C)O)C(=O)N1CCC[C@H]1C(=O)N[C@@H](CO)C(=O)N[C@@H](CO)C(=O)N[C@H](C(=O)N[C@@H](CC(N)=O)C(=O)N[C@H](C(=O)NCC(=O)N[C@@H](Cc1c[nH]cn1)C(=O)N[C@@H](CC(N)=O)C(=O)N[C@H](C(=O)N[C@@H](Cc1ccc(O)cc1)C(N)=O)[C@@H](C)O)C(C)C)[C@@H](C)O
B3: N^-1-[(4S)-4-carboxy-4-(19-carboxynonadecanoylamino)butanoyl]-Gly[Arg1,Ala14,Arg17,Pro21,Pro27,His34]-h-amylin (peptide)
peptide: {C20 diacid-γGlu}-GRCNTATCATQRLAAFLRHSSPNFGAIPSSTNVGHNTY-NH2
modifications: disulfide 3-8
SMILES: CC[C@H](C)[C@H](NC(=O)[C@H](C)NC(=O)CNC(=O)[C@H](Cc1ccccc1)NC(=O)[C@H](CC(N)=O)NC(=O)[C@@H]1CCCN1C(=O)[C@H](CO)NC(=O)[C@H](CO)NC(=O)[C@H](Cc1c[nH]cn1)NC(=O)[C@H](CCCNC(=N)N)NC(=O)[C@H](CC(C)C)NC(=O)[C@H](Cc1ccccc1)NC(=O)[C@H](C)NC(=O)[C@H](C)NC(=O)[C@H](CC(C)C)NC(=O)[C@H](CCCNC(=N)N)NC(=O)[C@H](CCC(N)=O)NC(=O)[C@@H](NC(=O)[C@H](C)NC(=O)[C@@H]1CSSC[C@H](NC(=O)[C@H](CCCNC(=N)N)NC(=O)CNC(=O)CC[C@H](NC(=O)CCCCCCCCCCCCCCCCCCC(=O)O)C(=O)O)C(=O)N[C@@H](CC(N)=O)C(=O)N[C@@H]([C@@H](C)O)C(=O)N[C@@H](C)C(=O)N[C@@H]([C@@H](C)O)C(=O)N1)[C@@H](C)O)C(=O)N1CCC[C@H]1C(=O)N[C@@H](CO)C(=O)N[C@@H](CO)C(=O)N[C@H](C(=O)N[C@@H](CC(N)=O)C(=O)N[C@H](C(=O)NCC(=O)N[C@@H](Cc1c[nH]cn1)C(=O)N[C@@H](CC(N)=O)C(=O)N[C@H](C(=O)N[C@@H](Cc1ccc(O)cc1)C(N)=O)[C@@H](C)O)C(C)C)[C@@H](C)O
notes: 38 residues
B4: N^-1-[(4S)-4-carboxy-4-(19-carboxynonadecanoylamino)butanoyl]-Gly[Arg1,His14,Arg17,Pro21,Pro27,Pro34]-h-amylin (peptide)
peptide: {C20 diacid-γGlu}-GRCNTATCATQRLAHFLRHSSPNFGAIPSSTNVGPNTY-NH2
modifications: disulfide 3-8
SMILES: CC[C@H](C)[C@H](NC(=O)[C@H](C)NC(=O)CNC(=O)[C@H](Cc1ccccc1)NC(=O)[C@H](CC(N)=O)NC(=O)[C@@H]1CCCN1C(=O)[C@H](CO)NC(=O)[C@H](CO)NC(=O)[C@H](Cc1c[nH]cn1)NC(=O)[C@H](CCCNC(=N)N)NC(=O)[C@H](CC(C)C)NC(=O)[C@H](Cc1ccccc1)NC(=O)[C@H](Cc1c[nH]cn1)NC(=O)[C@H](C)NC(=O)[C@H](CC(C)C)NC(=O)[C@H](CCCNC(=N)N)NC(=O)[C@H](CCC(N)=O)NC(=O)[C@@H](NC(=O)[C@H](C)NC(=O)[C@@H]1CSSC[C@H](NC(=O)[C@H](CCCNC(=N)N)NC(=O)CNC(=O)CC[C@H](NC(=O)CCCCCCCCCCCCCCCCCCC(=O)O)C(=O)O)C(=O)N[C@@H](CC(N)=O)C(=O)N[C@@H]([C@@H](C)O)C(=O)N[C@@H](C)C(=O)N[C@@H]([C@@H](C)O)C(=O)N1)[C@@H](C)O)C(=O)N1CCC[C@H]1C(=O)N[C@@H](CO)C(=O)N[C@@H](CO)C(=O)N[C@H](C(=O)N[C@@H](CC(N)=O)C(=O)N[C@H](C(=O)NCC(=O)N1CCC[C@H]1C(=O)N[C@@H](CC(N)=O)C(=O)N[C@H](C(=O)N[C@@H](Cc1ccc(O)cc1)C(N)=O)[C@@H](C)O)C(C)C)[C@@H](C)O
notes: 38 residues
B5: N{-1}-[(4S)-4-carboxy-4-(19-carboxynonadecanoylamino)butanoyl]-Gly[Arg1,His14,Arg17,Pro21,Pro27]-h-amylin (peptide)
peptide: {C20 diacid-γGlu}-GRCNTATCATQRLAHFLRHSSPNFGAIPSSTNVGSNTY-NH2
modifications: disulfide 3-8
SMILES: CC[C@H](C)[C@H](NC(=O)[C@H](C)NC(=O)CNC(=O)[C@H](Cc1ccccc1)NC(=O)[C@H](CC(N)=O)NC(=O)[C@@H]1CCCN1C(=O)[C@H](CO)NC(=O)[C@H](CO)NC(=O)[C@H](Cc1c[nH]cn1)NC(=O)[C@H](CCCNC(=N)N)NC(=O)[C@H](CC(C)C)NC(=O)[C@H](Cc1ccccc1)NC(=O)[C@H](Cc1c[nH]cn1)NC(=O)[C@H](C)NC(=O)[C@H](CC(C)C)NC(=O)[C@H](CCCNC(=N)N)NC(=O)[C@H](CCC(N)=O)NC(=O)[C@@H](NC(=O)[C@H](C)NC(=O)[C@@H]1CSSC[C@H](NC(=O)[C@H](CCCNC(=N)N)NC(=O)CNC(=O)CC[C@H](NC(=O)CCCCCCCCCCCCCCCCCCC(=O)O)C(=O)O)C(=O)N[C@@H](CC(N)=O)C(=O)N[C@@H]([C@@H](C)O)C(=O)N[C@@H](C)C(=O)N[C@@H]([C@@H](C)O)C(=O)N1)[C@@H](C)O)C(=O)N1CCC[C@H]1C(=O)N[C@@H](CO)C(=O)N[C@@H](CO)C(=O)N[C@H](C(=O)N[C@@H](CC(N)=O)C(=O)N[C@H](C(=O)NCC(=O)N[C@@H](CO)C(=O)N[C@@H](CC(N)=O)C(=O)N[C@H](C(=O)N[C@@H](Cc1ccc(O)cc1)C(N)=O)[C@@H](C)O)C(C)C)[C@@H](C)O
notes: 38 residues; also called compound 99

One experiment addresses T1, human calcitonin receptor (human, UniProt P30988 25-474).
T1 construct: whole, on cells; Used as cell membranes; also called hCTR; hCT
T1 sequence (looked up): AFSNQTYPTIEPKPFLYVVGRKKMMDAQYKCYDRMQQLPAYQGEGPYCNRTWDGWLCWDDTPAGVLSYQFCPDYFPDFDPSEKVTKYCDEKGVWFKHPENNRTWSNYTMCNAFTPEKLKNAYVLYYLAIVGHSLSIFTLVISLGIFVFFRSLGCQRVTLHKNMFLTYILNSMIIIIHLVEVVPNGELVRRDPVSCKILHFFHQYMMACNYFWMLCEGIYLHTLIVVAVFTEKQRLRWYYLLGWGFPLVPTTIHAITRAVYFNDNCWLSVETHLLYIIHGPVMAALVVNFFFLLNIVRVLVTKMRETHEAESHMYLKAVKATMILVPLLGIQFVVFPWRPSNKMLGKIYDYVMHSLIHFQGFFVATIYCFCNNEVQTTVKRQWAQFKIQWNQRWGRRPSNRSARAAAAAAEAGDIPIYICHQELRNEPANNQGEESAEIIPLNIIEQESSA
Briefly: ratio of hCTR IC50 to hAmylin-R IC50 (reference: human amylin receptor). Summed up: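 Scintillation proximity competition binding on cell membranes at 35 ng/μL with SPA beads, in 50 mM Hepes pH 7.4, 1 mM CaCl2, 5 mM MgCl₂, 0.1% OA, 0.02% Tween20. Incubated 120 min at 25° C with shaking. IC₅₀ from one-site competition fit.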
B1: the “Ratio hCT/hAmylin binding” value was 18.5.

B2: the “Ratio hCT/hAmylin binding” value is 59.4.

B3: the “Ratio hCT/hAmylin binding” value worked out at 68.6.

Take B4: the “Ratio hCT/hAmylin binding” value came to 36.2.

As to {C20 diacid-γGlu}-GRCNTATCATQRLAAFLRHSSPNFGAIPSSTNVGPNTY-NH2 (disulfide 3-8, 38 residues), the “Ratio hCT/hAmylin binding” value worked out at 26.5.

Turning to B5, the “Ratio hCT/hAmylin binding” value stood at 100.

For a further experiment, the target named is T1, human calcitonin receptor. Briefly: SPA competition on BHK cell membranes, 125I-calcitonin as radioligand (Assay VII). The gist of the method: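 BHK hCTR membranes 35 ng/μL + SPA beads 0.05 mg/well; buffer 50 mM Hepes pH 7.4, 1 mM CaCl2, 5 mM MgCl₂, 0.1% OA, 0.02% Tween20. 120 min, 25° C., shaking. Scintillation count; IC50 by one-site binding competition.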
A word on the IC50: it is the concentration that inhibits the measured activity by half. In the case of B1, the IC50 is 10.8 nM.

With B2, the IC50 was 22.7 nM.

For B3, the IC50 amounted to 29.2 nM.

On to B4, for which the IC50 was 7.87 nM.

For {C20 diacid-γGlu}-GRCNTATCATQRLAAFLRHSSPNFGAIPSSTNVGPNTY-NH2 (disulfide 3-8, 38 residues), the IC50 is 3 nM.

As for B5, the IC50 is 35 nM.
